The text below walks through data of paper PMC8876058 (Viruses, 2022).

Assay [1] deals with T1, CyPet-Ubc9 (SUMOylation E2 conjugating enzyme Ubc9 fused to the FRET donor CyPet) (human, UniProt P63279 1-158).
T1 construct: also called SUMO E2
Kind of assay: FRET or BRET. The note with it: both partners purified. (In general: BRET reads energy transfer from a luciferase to a nearby fluorophore.)

The target in assay [2] is T2, CyPet-PIAS1 (SUMOylation E3 ligase PIAS1 fused to the FRET donor CyPet) (human, UniProt O75925 1-651).
T2 construct: also called SUMO E3
Nature of the assay: FRET or BRET. The conditions noted are these: both partners purified.

T2 sequence (O75925 whole entry, the tested form may be a part): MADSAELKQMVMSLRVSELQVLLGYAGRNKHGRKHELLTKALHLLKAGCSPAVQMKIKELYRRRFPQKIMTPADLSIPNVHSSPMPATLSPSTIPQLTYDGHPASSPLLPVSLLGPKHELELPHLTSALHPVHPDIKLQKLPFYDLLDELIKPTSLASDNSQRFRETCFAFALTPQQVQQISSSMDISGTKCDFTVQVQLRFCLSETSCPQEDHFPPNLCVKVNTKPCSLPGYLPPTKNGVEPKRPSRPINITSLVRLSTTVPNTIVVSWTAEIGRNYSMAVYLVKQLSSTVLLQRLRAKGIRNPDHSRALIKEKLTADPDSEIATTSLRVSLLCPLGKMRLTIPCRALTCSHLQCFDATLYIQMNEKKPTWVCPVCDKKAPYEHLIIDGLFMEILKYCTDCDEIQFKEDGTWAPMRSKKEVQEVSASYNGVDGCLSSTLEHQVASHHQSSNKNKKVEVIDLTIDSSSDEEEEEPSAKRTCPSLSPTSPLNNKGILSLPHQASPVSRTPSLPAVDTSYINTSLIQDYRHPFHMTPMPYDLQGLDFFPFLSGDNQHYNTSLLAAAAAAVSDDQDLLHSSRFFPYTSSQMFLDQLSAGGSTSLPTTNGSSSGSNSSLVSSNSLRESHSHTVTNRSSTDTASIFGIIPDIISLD
T1 sequence (P63279 whole entry, the tested form may be a part): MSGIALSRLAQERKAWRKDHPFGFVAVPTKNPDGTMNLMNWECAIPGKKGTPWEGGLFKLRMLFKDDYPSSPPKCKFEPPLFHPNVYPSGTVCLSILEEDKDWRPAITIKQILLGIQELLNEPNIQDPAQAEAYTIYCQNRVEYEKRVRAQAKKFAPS

B1: YPet-Linker3-M1 (M1 protein of influenza B virus fused to the FRET acceptor YPet) (natural protein)
chain: MSLFGDTIAYLLSLTEDGEGKAELAEKLHCWFGGKEFDLDSALEWIKNKRCLTDIQKALIGASICFLKPKDQERKRRFITEPLSGMGTTATKKKGLILAERKMRRCVSFHEAFEIAEGHESSALLYCLMVMYLNPGNYSMQVKLGTLCALCEKQASHSHRAHSRAARSSVPGVRREMQMVSAMNTAKTMNGMGKGEDVQKLAEELQSNIGVLRSLGASQKNGEGIAKDVMEVLKQSSMGNSALVKKYL
A word on the Kd: it is the free concentration of one partner at which half of the binding sites on the other are occupied at equilibrium, for simple one-to-one binding. A high value points to a looser complex. Turning to B1, the Kd in assay [1] was determined as 200 nM; in assay [2], 220 nM.
